Results reported in patent US20250277022A1 (STAIDSON BEIJING BIOPHARMACEUTICALS, published 2025).
Where two headings read alike, the source gives them in different places.

Experiments:
human TSLP [1] = target: T1, human TSLP (human, UniProt Q969D9 29-159); assay: cell-based or functional assay
human TSLP [2] = target: T1, human TSLP; assay: ELISA, plate coated with human TSLP, test antibodies as human IgG1
Experimental: (§1) ELISA Screening: Monoclonal scFv antibodies were selected and subjected to ligand binding assays. The first assay was designed to identify scFv antibodies that bound human TSLP and/or cynomolgus TSLP. Briefly, a 96-well plate was coated with human TSLP or cynomolgus TSLP in PBS at 0.1 μg/well and left overnight at 4° C. Before loading the scFv antibodies, the plates were washed with TBST, blocked for 1-2 hours at 37° C. using 5% milk and washed again with TBST. Each scFv sample was first diluted to 40 μg/mL, and 150 μL was added to the first row of wells. The 40 μg/mL scFv samples were then serially diluted at a 1:3 ratio and added to the remaining wells. After incubating for an hour at 37° C., followed by washing with TBST for 6 times, 100 μl of the secondary antibody (HRP labeled mouse anti-flag (1:2500)) was added to each well. After incubation for an hour under 37° C., the plate was washed for 3 times using TBST. TMB was then added at 100 μL/well and incubated for 10-20 minutes at 37° C. 2 M H₂SO₄ was used to stop the reaction. The ELISA results (OD405) were then analyzed and the binding curves were generated by PRISM.

human TSLP [3] = target: T1, human TSLP; assay: cell-based or functional assay; remark: listed apart in the source
TSLP-His = target: T2, TSLP-His (human, UniProt Q969D9 29-159, limits assumed); assay: HTRF competition: blocking of TSLP-his binding to HEK293-Flag-hTSLPR-IL7Ra cells, IgG1
T2 construct: also called his-tagged TSLP; not shown: His-tag
T2 sequence (Q969D9 29-159 R127A/R130S limits assumed): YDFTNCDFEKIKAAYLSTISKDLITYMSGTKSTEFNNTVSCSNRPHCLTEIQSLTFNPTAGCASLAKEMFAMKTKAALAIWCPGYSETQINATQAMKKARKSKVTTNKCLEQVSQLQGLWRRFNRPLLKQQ

human TSLP [4] = target: T1, human TSLP; assay: ELISA, plate coated with human TSLP, test antibodies as human IgG1; remark: listed apart in the source
Experimental: as §1

human TSLP [5] = target: T1, human TSLP; assay: cell-based or functional assay; remark: listed apart in the source
cynomolgus monkey TSLP [6] = target: T3, cynomolgus monkey TSLP (cynomolgus monkey, UniProt A0A7N9CAT7 29-159); assay: ELISA, plate coated with cynomolgus monkey TSLP, test antibodies as human IgG1
T3 construct: also called cynomolgus TSLP; recombinant cynomolgus monkey TSLP
T3 sequence (A0A7N9CAT7 entry or part of it): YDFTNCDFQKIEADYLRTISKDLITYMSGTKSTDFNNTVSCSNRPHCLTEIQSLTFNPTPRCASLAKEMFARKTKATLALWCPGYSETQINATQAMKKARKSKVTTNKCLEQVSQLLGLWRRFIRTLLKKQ
Experimental: as §1

human IL-7 = target: T4, human IL-7 (human, UniProt P13232 26-177); assay: ELISA on human IL-7
T4 construct: also called TSLP homologous protein IL-7
T4 sequence (looked up): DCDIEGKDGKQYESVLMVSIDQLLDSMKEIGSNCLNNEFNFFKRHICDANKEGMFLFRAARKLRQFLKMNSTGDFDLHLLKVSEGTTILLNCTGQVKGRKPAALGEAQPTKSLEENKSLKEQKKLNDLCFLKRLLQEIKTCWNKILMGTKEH

cynomolgus monkey TSLP [7] = target: T3, cynomolgus monkey TSLP; assay: ELISA, plate coated with cynomolgus monkey TSLP, test antibodies as human IgG1; remark: listed apart in the source
Experimental: as §1

human TSLP [8] = target: T1, human TSLP; assay: ELISA, plate coated with human TSLP, test antibodies as human IgG1; remark: listed apart in the source
Experimental: as §1

human TSLP [9] = target: T1, human TSLP; assay: cell-based or functional assay; remark: listed apart in the source
human TSLP [10] = target: T1, human TSLP; assay: ELISA, plate coated with human TSLP, test antibodies as human IgG1; remark: listed apart in the source
Experimental: as §1

cynomolgus monkey TSLP [11] = target: T3, cynomolgus monkey TSLP; assay: ELISA, plate coated with cynomolgus monkey TSLP, test antibodies as human IgG1; remark: listed apart in the source
Experimental: as §1

T1 sequence (Q969D9 29-159 R127A/R130S limits assumed): as the sequence (Q969D9 29-159 R127A/R130S limits assumed) above

B1: TSLP-0108 (antibody, V domains shown)
VH: QVQLQESGPGLVKPSETLSLTCAVSGYSISSGYGWSWIRQPPGKGLEWIGYISYYGSTSYNPSLKSRVTISRDTSKNQFSLKLSSVTAADTAVYYCARTNLLYFDSWGQGTLVTVSS
VL: EIVMTQSPATLSLSPGERATLSCRASQSVSNNLAWYQQKPGQAPRLLIYDASSRATGIPARFSGSGSGTDFTLTISSLEPEDFAVYYCQQYSDWPEYSFGQGTKVEIK
- IC50, inhibition of TSLP induced proliferation of Ba/F3-TSLPR-IL7Ra cells (CellTiter-Glo) (human TSLP [1]): 39.4 ng/mL
- EC50 (read off the curve) (human TSLP [2]): ~0.06 µg/mL
- IC50, inhibition of human TSLP-induced Stat5 activation (Stat5-luciferase reporter, Ba/F3 cells with hTSLPR and hIL7Ra) (human TSLP [3]): 10.8 ng/mL
- IC50 (TSLP-His): 0.158 µg/mL

B2: TSLP-0103 (antibody, V domains shown)
VH: QVQLQESGPGLVKPSETLSLTCTVSGYSISSGYGWSWIRQPPGKGLEWIGYISYYGSISYNPSLKSRVTISRDTSKNQFSLKLSSVTAADTAVYYCARTNLLYFDSWGQGTLVTVSS
VL: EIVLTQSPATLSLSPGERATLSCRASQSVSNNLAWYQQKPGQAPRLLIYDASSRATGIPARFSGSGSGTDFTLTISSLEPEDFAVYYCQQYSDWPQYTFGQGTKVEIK
- EC50 (read off the curve) (human TSLP [4]): ~0.04 µg/mL
- IC50, inhibition of human TSLP-induced Stat5 activation (Stat5-luciferase reporter, Ba/F3 cells with hTSLPR and hIL7Ra) (human TSLP [5]): 12.9 ng/mL
- EC50 (read off the curve) (cynomolgus monkey TSLP [6]): ~0.7 µg/mL
- binding result (human IL-7): no binding
- IC50 (TSLP-His): 0.379 µg/mL

B3: TSLP-0111 (antibody, V domains shown)
VH: QVQLQESGPGLVKPSETLSLTCAVSGYSISSGYGWSWIRQPPGKGLEWIGYFSYYGSTSYNPSLKSRVTISRDTSKNQFSLKLSSVTAADTAVYYCARTNLLYFDSWGQGTLVTVSS
VL: EIVMTQSPATLSLSPGERATLSCRASQSVSSNLAWYQQKPGQAPRLLIYDASSRATGIPARFSGSGSGTDFTLTISSLEPEDFAVYYCQQYSNWPQYSFGQGTKVEIK
- IC50, inhibition of TSLP induced proliferation of Ba/F3-TSLPR-IL7Ra cells (CellTiter-Glo) (human TSLP [1]): 244 ng/mL
- EC50 (read off the curve) (human TSLP [2]): ~0.08 µg/mL
- IC50, inhibition of human TSLP-induced Stat5 activation (Stat5-luciferase reporter, Ba/F3 cells with hTSLPR and hIL7Ra) (human TSLP [3]): 43.8 ng/mL

B4: TSLP-0112 (antibody, V domains shown)
VH: QVQLQESGPGLVKPSETLSLTCAVSGYSISSGYGWSWIRQPPGKGLEWIGYISYYGSTSYNPSLKSRVTISRDTSKNQFSLKLSSVTAADTAVYYCARTNLLYFDYWGQGTLVTVSS
VL: EIVMTQSPATLSLSPGERATLSCRASQSVSSYLAWYQQKPGQAPRLLIYDASSRATGIPARFSGSGSGTDFTLTISSLEPEDFAVYYCQQYSDWPQYSFGQGTKVEIK
- IC50, inhibition of TSLP induced proliferation of Ba/F3-TSLPR-IL7Ra cells (CellTiter-Glo) (human TSLP [1]): 214 ng/mL
- EC50 (read off the curve) (human TSLP [2]): ~0.08 µg/mL
- IC50, inhibition of human TSLP-induced Stat5 activation (Stat5-luciferase reporter, Ba/F3 cells with hTSLPR and hIL7Ra) (human TSLP [3]): 30.8 ng/mL

B5: TSLP-02 (antibody, V domains shown)
VH: QVQLVQSGAEVKKPGSSVKVSCKASGFTFGSYGINWVRQAPGQGLEWLGVIVPLVGVTIYAEKFQGRVTITADTSTSTAYMELSSLRSEDTAVYYCARGQEYFYWYFDLWGQGTLVTVSS
VL: QSALTQPPSASGSPGQSVTISCSGSSSDIGGYNRVSWYQQHPGKAPKLMIYDVSKRPSGVPDRFSGSKSGNTASLTVSGLQAEDEADYYCSSYAGTDTFILFGGGTKLTVL
notes: also called parent antibody TSLP-02
- EC50 (read off the curve) (cynomolgus monkey TSLP [7]): ~0.7 µg/mL
- IC50, inhibition of TSLP induced proliferation of Ba/F3-TSLPR-IL7Ra cells (CellTiter-Glo) (human TSLP [1]): 17.5 ng/mL
- EC50 (read off the curve) (human TSLP [8]): ~0.09 µg/mL
- IC50, inhibition of human TSLP-induced Stat5 activation (Stat5-luciferase reporter, Ba/F3 cells with hTSLPR and hIL7Ra) (human TSLP [9]): 6.67 ng/mL
- binding result (human IL-7): no binding
- IC50 (TSLP-His): 0.229 µg/mL

B6: TSLP-0207 (antibody, V domains shown)
VH: QVQLVQSGAEVKKPGSSVKVSCKASGFTFGSYGISWVRQAPGQGLEWLGVIVPLVGVTIYAEKFQGRVTITADTSTSTAYMELSSLRSEDTAVYYCARGQEYFYWYFDLWGQGTLVTVSS
VL: QSALTQPPSASGSPGQSVTISCTGTSSDIGGYNRVSWYQQHPGKAPKLMIYEFNKRPSGVPDRFSGSKSGNTASLTVSGLQAEDEADYYCSSYAGTDIFVLFGGGTKLTVL
- IC50, inhibition of TSLP induced proliferation of Ba/F3-TSLPR-IL7Ra cells (CellTiter-Glo) (human TSLP [1]): 133 ng/mL
- EC50 (read off the curve) (human TSLP [10]): ~0.05 µg/mL
- IC50, inhibition of human TSLP-induced Stat5 activation (Stat5-luciferase reporter, Ba/F3 cells with hTSLPR and hIL7Ra) (human TSLP [3]): 25 ng/mL

B7: TSLP-0201 (antibody, V domains shown)
VH: QVQLVQSGAEVKKPGSSVKVSCKASGFTFGSYGINWVRQAPGQGLEWMGVIVPLVGVTIYAEKFQGRVTITADTSTSTAYMELSSLRSEDTAVYYCARGQEYFYWYFDLWGQGTLVTVSS
VL: QSALTQPPSASGSPGQSVTISCSGSSSDIGGYNRVSWYQQHPGKAPKLMIYDVSKRPSGVPDRFSGSKSGNTASLTVSGLQAEDEADYYCSSYAGTDTFILFGGGTKLTVL
- EC50 (read off the curve) (cynomolgus monkey TSLP [7]): ~0.7 µg/mL
- IC50, inhibition of TSLP induced proliferation of Ba/F3-TSLPR-IL7Ra cells (CellTiter-Glo) (human TSLP [1]): 18.5 ng/mL
- EC50 (read off the curve) (human TSLP [8]): ~0.07 µg/mL
- IC50, inhibition of human TSLP-induced Stat5 activation (Stat5-luciferase reporter, Ba/F3 cells with hTSLPR and hIL7Ra) (human TSLP [9]): 4.63 ng/mL
- IC50 (TSLP-His): 0.351 µg/mL

B8: TSLP-0206 (antibody, V domains shown)
VH: QVQLVQSGAEVKKPGSSVKVSCKASGFTFGSYGISWVRQAPGQGLEWLGVIVPLVDVTIYAEKFQGRVTITADTSTSTAYMELSSLRSEDTAVYYCARGQEYFYWYFDLWGQGTLVTVSS
VL: QSALTQPPSASGSPGQSVTISCTGTISDIGGYNRVSWYQQHPGKAPKLMIYEVSKRPSGVPDRFSGSKSGNTASLTVSGLQAEDEADYYCSSYAGTDTFVFFGGGTKLTVL
- IC50, inhibition of TSLP induced proliferation of Ba/F3-TSLPR-IL7Ra cells (CellTiter-Glo) (human TSLP [1]): 65.1 ng/mL
- EC50 (read off the curve) (human TSLP [10]): ~0.04 µg/mL
- EC50 (read off the curve) (cynomolgus monkey TSLP [11]): ~0.3 µg/mL
- IC50, inhibition of human TSLP-induced Stat5 activation (Stat5-luciferase reporter, Ba/F3 cells with hTSLPR and hIL7Ra) (human TSLP [3]): 18.3 ng/mL

B9: TSLP-0203 (antibody, V domains shown)
VH: QVQLVQSGAEVKKPGSSVKVSCKASGFTFGSYGINWVRQAPGQGLEWLGVIVPLVGVTIYAEKFQGRVTITADTSTSTAYMELSSLRSEDTAVYYCARGQEYFYWYFDLWGQGTLVTVSS
VL: QSALTQPPSASGSPGQSVTISCTGTSSDIGGYDRVSWYQQHPGKAPKLMIYGVSKRPSGVPDRFSGSKSGNTASLTVSGLQAEDEADYYCSSYASGHTFGLFGGGTKLTVL
- EC50 (read off the curve) (cynomolgus monkey TSLP [7]): ~0.3 µg/mL
- IC50, inhibition of TSLP induced proliferation of Ba/F3-TSLPR-IL7Ra cells (CellTiter-Glo) (human TSLP [1]): 36.3 ng/mL
- EC50 (read off the curve) (human TSLP [8]): ~0.1 µg/mL
- IC50, inhibition of human TSLP-induced Stat5 activation (Stat5-luciferase reporter, Ba/F3 cells with hTSLPR and hIL7Ra) (human TSLP [3]): 21.6 ng/mL
- IC50 (TSLP-His): 0.383 µg/mL

B10: TSLP-0205 (antibody, V domains shown)
VH: QVQLVQSGAEVKKPGSSVKVSCKASGFTFGSYGINWVRQAPGQGLEWLGVIVPLVGVTIYAEKFQGRVTITADTSTSTAYMELSSLRSEDTAVYYCARGQEYFYWYFDLWGQGTLVTVSS
VL: QSALTQPPSASGSPGQSVTISCTGTTSDIGGYNRVSWYQQHPGKAPKLMIYEVSKRPSGVPDRFSGSKSGNTASLTVSGLQAEDEADYYCSSYAGTDTFAIFGGGTKLTVL
- IC50, inhibition of TSLP induced proliferation of Ba/F3-TSLPR-IL7Ra cells (CellTiter-Glo) (human TSLP [1]): 284 ng/mL
- EC50 (read off the curve) (human TSLP [10]): ~0.04 µg/mL
- EC50 (read off the curve) (cynomolgus monkey TSLP [11]): ~0.3 µg/mL
- IC50, inhibition of human TSLP-induced Stat5 activation (Stat5-luciferase reporter, Ba/F3 cells with hTSLPR and hIL7Ra) (human TSLP [3]): 42.1 ng/mL

B11: TSLP-0204 (antibody, V domains shown)
VH: QVQLVQSGAEVKKPGSSVKVSCKASGFTFGSYGINWVRQAPGQGLEWLGVIVPLVGVTIYAEKFQGRVTITADTSTSTAYMELSSLRSEDTAVYYCARGQEYFYWYFDLWGQGTLVTVSS
VL: QSALTQPPSASGSPGQSVTISCTGTSSDIGGYNRVSWYQQHPGKAPKLMIYEVNKRSSGVPDRFSGSKSGNTASLTVSGLQAEDEADYYCTSYAGTDTFVLFGGGTKLTVL
- EC50 (read off the curve) (cynomolgus monkey TSLP [7]): ~0.2 µg/mL
- IC50, inhibition of TSLP induced proliferation of Ba/F3-TSLPR-IL7Ra cells (CellTiter-Glo) (human TSLP [1]): 42.2 ng/mL
- EC50 (read off the curve) (human TSLP [8]): ~0.1 µg/mL
- IC50, inhibition of human TSLP-induced Stat5 activation (Stat5-luciferase reporter, Ba/F3 cells with hTSLPR and hIL7Ra) (human TSLP [3]): 18.9 ng/mL
- IC50 (TSLP-His): 0.428 µg/mL

B12: TSLP-0208 (antibody, V domains shown)
VH: QVQLVQSGAEVKKPGSSVKVSCKASGFTFGSYGISWVRQAPGQGLEWLGVIIPLLGVPNYAEKFQGRVTITADTSTSTAYMELSSLRSEDTAVYYCARGAEYFYWYFDLWGQGTLVTVSS
VL: QSALTQPPSASGSPGQSVTISCTGSNSDIGGYNRVSWYQQHPGKAPKLMIYEISKRPSGVPDRFSGSKSGNTASLTVSGLQAEDEADYYCSSYAGTDTFVLFGGGTKLTVL
- EC50 (read off the curve) (human TSLP [10]): ~0.1 µg/mL
- EC50 (read off the curve) (cynomolgus monkey TSLP [11]): ~0.3 µg/mL
